Experiment: yeast display, Sf9 membrane polyspecificity reagent, FACS + sequencing; frameworks hold sequencing errors
Method in brief: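 Genes from sorted yeast were amplified by colony PCR, read by MiSeq 2 × 250 sequencing and filtered on CDR length. These cells carried a synthetic nanobody library in Saccharomyces cerevisiae BJ5465 and were sorted by FACS into low and high (top ~1%) gates on anti-HA and streptavidin fluorescence. Polyreactivity is labelled according to the gate of origin.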

Row | Sequence | polyreactivity (PSR sort gate)
1 | QVQIVESGGGLVQAGGSLRLSCAASGFIFGQYAMGWYRQAPGKERELVAAISSVGTTNYADSVKGRFTISRDNAKNTVYLQMNSLKPEDTAVYYCNAPVFYYWDYSYFPYEVDYWGQGTQVTESS | low polyreactivity
2 | QVQIVESGGGLVQAGGSLRLSCAASGFIFWFNAMGWYRQAPGKERELVATISWSDTSTYYAVSVKGRFTISRDNAKNTVYLQMNSLKPEDTAVYYFATDASETSLPEYYWGQGTQETVSS | low polyreactivity
3 | QVQIVESGGGLVQAGGSLRLSCAASGFTCRGNAMGWYRQAPGKERELVATISYNAGSTYYADAVKGRFTISRDNAKNTVYFQMNSLNPEDTAVYYCAVELDSEPDYEPWTEYDYWGQGTQVTVSS | low polyreactivity
4 | QVQIVESGGGLVQAGGSLRLSCAASGFTIDQYAMGWYRQAPGKERELVAAISWRGGSTYYADSVKGRFTISRDNAKNTVYLQMNSLKPEDTAVYYCNGYSPYHAGVDYGYWGQGTQVTVSS | high polyreactivity
5 | QVQIVESGGGLVQAGGSLRLSCAASGLIFDANAMGWYRQAPGKERELVAAISNGDSTYYADSVKGRFTISRDNAKNTVYLQMNSLKPEDTAVYYCNARIIYRKWLLRSGTFNYWGQGTQVTVSS | low polyreactivity
6 | QVQIVESGGGLVQAGGSLRLSCAASGLTFAYYAMGRYRQAPGKERELVAAISYSGGSTYYADSVKGRFTISRDNAKITVYLQMNSLKPEDTAVYYCNAYSRKTPHLYYYWGQGTQVTVSS | high polyreactivity
7 | QVQIVESGGGLVQAGGSLRLSCAASGRIFGYNAMGWYRQAPGKERELVAAISNTGGSTYYADSVKGRFTISRDNAKNTVYLQMNSLKPEDTAVYYCNASGRRVQIWEGDYWGHGTQVTVSS | high polyreactivity
8 | QVQIVESGGGLVQAGGSLRLSCAASGRIFTYNAMGWSRQAPGKERELVAAITRGGTTNYADSVKVRFTISRDNAKNTVYLQMNSLKPEDTAVSYCARAGAHPWWSRSTMYYWGQGTQVTVSS | low polyreactivity
9 | QVQIVESGGGLVQAGGSLRLSCAASGRIFVRNAMGWYRQAPAKERELVADITNGGSTNYADSVKGRFTISRDNEKNTVYLQMNSLKPEDTAVYYCAADSLGVYDGDYWGQGTQVTVSS | low polyreactivity
10 | QVQIVESGGGLVQAGGSLRLSCAASGRIFYNYAMGWNRQAPGKERELVAAISGSGGSTYYADSVKGRFTISRDNAKNTVYLQMNSLKPEDTAVYYCSTSGPQYYSRNFDYWGQGTQVTVSS | low polyreactivity
11 | QVQIVESGGGLVQAGGSLRLSCAASGRILVPYTMGWYRQAPGKERELVAAITIGGRTTYADSVKGRFTISRDNAKNTVYLQMNSLKPEDTAVYYCAKRDWRYEWYGYDYWGQGTQVTVSS | low polyreactivity
12 | QVQIVESGGGLVQAGGSLRLSCAASGRNFGANAMGWYRQAPGKERELVASISSSGSRTYYAVSVKGRFTISRDNAKNTVSLQMNSLKPEDSAVYYCAARYWIYRSEYDYWGQGTQVTVSS | high polyreactivity
13 | QVQIVESGGGLVQAGGSLRLSCAASGRTFTYYAMGWYRQAPGKERELVARIRSGGSTYYADSVKGRFTISRDNEKNTVYLQMNSLKPEDTAVYYCNADRRSAGLYNYWGQGTQVTVSS | low polyreactivity
14 | QVQIVESGGGLVQAGGSLRLSCAASGRTFYSYAMGWYRQAPGKERELVAAIRWPGVRTYYADSVKGRFTISRDNAKNSFYLQMNSLKPEDTAVYYCAVYRYSGKGYRGPRDYWGQGTQVTVSS | high polyreactivity
15 | QVQIVESGGGLVQAGGSLRLSCAASGRTIYYYTMGWYIQAPGKERELVAAITHGGSTYYADSVKGRFTISRDNAKNTVYLQMNSLNPEDTAVYYCNAVYDYPYEYWGQGTQVTVSS | high polyreactivity
16 | QVQIVESGGGLVQAGGSLRLSCAASGRTLALYTMGWYRQAPGKERELVAAINWSGTSTYYADSVKGRNTISRDNAKNTVYLQINILKPEDTAVYYCNADGSAYIEDGYDYWGQGTQVTVSS | low polyreactivity

Row | Sequence | polyreactivity (PSR sort gate)
17 | QVQIVESGGGLVQAGGSLRLSCAASGRTLGFYAMGWYRQAPGKEREFVAAISSSVGRTYYADSVKGRFTISRDNAKNTVYLHMNRLKPEDTAVYYCAAKVSAWKKKSEMNYWGQGTQVTVSS | high polyreactivity
18 | QVQIVESGGGLVQAGGSLRLSCAASGRTLSYYAMGWYRQAPGKEREFVAAITGSGGSTYYADSVKGRFTISRDNAKNYVYFQMNSLKPEDTAVYYCNAKGLGVFTVEYYYWGQGTQVTVSS | low polyreactivity
19 | QVQIVESGGGLVQAGGSLRLSCAASGSIFDDYAMGWYRQAPGKERELVAAISSGVSTDYADSVKGRFTISRDNAKNTVYLQMYSLKPEDTAVYYCAADDQYRVTLGYDYWGQGTQVTVSS | low polyreactivity
20 | QVQIVESGGGLVQAGGSLRLSCAASGSIFFIYGMGWYRQAPVKERELVARIRVSGDSTYYADSVKGRFTISRDNAKNTVYVQMNSLKPVDTAVYYCNARSLWGYGYWGQCTQVTVSS | high polyreactivity
21 | QVQIVESGGGLVQAGGSLRLSCAASGSIFGANDMGWYRQAPGKERELVAAISTRGGRTYYADSVKGRFTISRDNEMNTVYLHMNSLKPEDTAVYYCDTSGGRPYKYEYWGQGTQVTVSS | high polyreactivity
22 | QVQIVESGGGLVQAGGSLRLSCAASGSIFSGYVMGWYRQAPGKERELVAAITWSGGRTYYADSVKGRFTISRDNAKNTVYLQMNSLKPEDTAVYYCAKRKIKSSGYYYWGQGTQVTVSS | high polyreactivity
23 | QVQIVESGGGLVQAGGSLRLSCAASGSIFSVYAMGWYRQAPGKERELVAGINRRTGITYYADSVKGRFTISRDNAKNTVYLQMNSLKPEDTAVYYCAADPYVKYNYWGQGTQVTVSS | low polyreactivity
24 | QVQIVESGGGLVQAGGSLRLSCAASGSIFTYNAMGWYRQAPGKERELVAAISYSGVRTYYADSVKGRFTISRDNAKNTVYLQMNRLKPVDTAVYYCNTRYPYSVLKYGYWGQGTQVTVSS | high polyreactivity
25 | QVQIVESGGGLVQAGGSLRLSCAASGSTFGYYAMGWYRQAPGKERELVAAISWRGGSTYYADSVKGRFTISRDNAKNTVYLQMHILKPEYTAVYYCAAAIFITGYGSYGYWGLGTQVTVSS | low polyreactivity
26 | QVQIVESGGGLVQAGGSLRLSCAASGSTFGYYTMGWYRQAPGKERELVAAISWSGGSTYYADSVKGRFTISRDNAKNTVYLQKNSLKPEDTAVYYCAALGYTYKYYSYYWGQGTQVTVSS | high polyreactivity
27 | QVQIVESGGGLVQAGGSLRLSCAASGSTFKRYAMGWYRQAPGKERELVAAITWRGGSTYYADSVKGRFTISRDNAKNTVYLQMNSLKPEDTAVYYCAARANYFGWPKSYYYWGQGTQVTVSS | high polyreactivity
28 | QVQIVESGGGLVQAGGSLRLSCAASGSTFYYNTMGWYRQAPGKERELVAAISWRRVSTYYADSVKGRFTISRDIAKNTVYFQMNSLKPEDTAVYYCNAVHHYPEHIGGGYWGQGSQVTVSS | low polyreactivity
29 | QVQIVESGGGLVQAGGSLRLSCAASGSTSTLNAMGWYRQAPGTERELVAAISRSGTSTYFADSVKGRFTISRDNAKNTVYLQMNSLKPEDTADYYCAAYSYGPPYYYWGQGTQVTVSS | high polyreactivity
30 | QVQIVESGGGLVQAGGSLRLSCAASGSTSVKYAMGWYRQAPGKERELVAAIRKRGDSTYYADSVKGRFTISRDYAKNTVYLQMNSLKPEDTAVYYFAAQYLRGRGYWGQGTQVTLSS | low polyreactivity
31 | QVQIVESGGGLVQAGGSLRLSCAAYGFTFYPYAMGWYRQAPGKERELVAAITRGGSTYYADSVKGRFTISRDNEKNTVYLQMNSLKPEDTAVYYCNAYWQGYGYDYWGQGTQVTVSS | low polyreactivity
32 | QVQIVESGGGLVQAGGSLRLSCADSGTTFRFNAIGWSRQAPGKERELVAAITGIGGITYYADSVKGRFTISRDNAKNTVYLQMNSLKPEDTAVYYCNAVAARYSVRNGYSTHYDYWGQGTQVTVSS | high polyreactivity

— the nanobody polyreactivity screen of Harvey et al. (2022)
